Data: the supplement of paper PMC10567573

B1: PTPRD (parent)
chain: FICQATGDPRPKIVWNKKGKKVSN
B2: PWWP2B (parent)
chain: TIRLRPRQVLCEKCKSTLSPPEAS

Variants of: B1
Test: protein stability index of a GFP-peptide fusion (GPS, HEK-293T) (PSI 1-6); higher = more stable
Settings: c terminus: a fixed tail appended
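Further: lentivirally expressed fusions sorted by FACS into six bins by GFP to DsRed ratio, PSI derived from sequencing read proportions per bin multiplied by bin number.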

Protein stability index of substitutions, site by site:
K18: V 1.45 | D 1.95 | I 1.24 | S 1.61 | E 2.41 | L 1.67 | A 1.93 | Q 1.74 | H 2.35 | N 1.98 | M 1.46 | Y 1.94 | P 1.97 | T 1.51 | G 2.04 | R 2.2 | W 2.01 | C 1.72 | F 1.38
K20: G 1.79 | C 1.17 | E 1.78 | A 1.82 | H 2.71 | V 1.44 | Y 1.48 | W 1.76 | M 1.8 | D 1.64 | L 1.96 | S 1.94 | N 1.77 | R 2.39 | I 1.88 | Q 2.56 | P 2 | T 1.69
G19: F 2.51 | P 1.74 | R 2.05 | D 1.71 | H 1.9 | K 1.87 | V 1.71 | C 1.26 | M 2.22 | Q 2.4 | I 1.53 | T 2.14 | S 1.7 | A 2.23 | N 1.56 | Y 1.27 | E 1.8 | W 1.84
K21: C 2.26 | W 1.72 | Y 1.49 | R 2.49 | E 2.25 | N 2.17 | F 1.61 | M 2.03 | S 2.28 | I 2.2 | V 1.9 | Q 1.77 | P 2.18 | T 2.45 | H 1.95 | L 2.9 | D 1.99 | A 2.52 | G 1.9
S23: D 2.52 | Q 2.07 | K 2.52 | I 1.84 | A 2.49 | G 2.28 | R 2.08 | V 2.4 | P 2.15 | W 2.28 | C 2.69 | Y 2 | F 2.31 | H 2.37 | T 2.59 | M 2.29 | L 2.14 | E 2.72 | N 2.12
N24: F 1.89 | E 2.37 | K 1.85 | S 2.03 | M 1.4 | A 1.97 | D 2.05 | I 2.73 | T 1.65 | P 2.31 | L 1.44 | W 1.92 | R 3.04 | Q 2.02 | G 2.22 | C 2.23 | H 2.17 | V 2.33 | Y 2.08
V22: S 2.41 | Q 2.47 | N 2.16 | D 2.86 | M 2.35 | K 2.66 | C 2.13 | P 2.62 | Y 2.47 | F 2.4 | H 2.46 | T 2.29 | A 2 | R 2.04 | E 2.34 | L 2.36 | W 2.35 | G 2.58 | I 2.17
K17: Y 1.68

Variants of: B2
Test: as above
Settings: c terminus: a fixed tail appended

Protein stability index: each site, then its substitutions
V9: F 2.72 | N 3.58 | E 3.35 | S 3.16 | P 3.13 | G 2.64 | A 3.61 | K 2.85 | D 3.19 | L 2.37 | H 2.97 | Q 3.31 | I 3 | R 2.94 | W 2.24 | Y 2.54 | C 3.42 | T 3.33 | M 2.73
L10: F 1.94 | P 3.37 | R 2.84 | T 3.43 | G 3.17 | W 2.48 | N 3.53 | E 3.35 | H 3.3 | C 3.21 | Q 3.53 | I 2.83 | Y 2.5 | A 3.44 | D 3.9 | M 2.83 | V 3.61 | S 3.13 | K 3.38
Q8: Y 2.74 | M 2.92 | I 2.64 | S 3.05 | W 2.19 | G 2.96 | L 2.58 | C 2.09 | V 2.35 | R 2.95 | E 3.33 | D 3.49 | K 2.99 | A 2.85 | H 2.77 | T 2.76 | F 2.24 | N 2.97 | P 3.06
T1: P 3.43 | M 2.23 | F 1.72 | W 2.12 | D 3.76 | I 2.44 | H 2.8 | N 3.63 | G 3.09 | L 2.28 | S 2.98 | A 2.59 | R 2.65 | E 3.55 | K 2.98 | Q 3.11 | Y 1.76 | V 2.78 | C 2.91
R7: K 2.99 | D 3.85 | L 2.62 | H 3.1 | T 3.31 | I 2.9 | Q 3.38 | V 2.96 | W 2.16 | M 2.92 | P 3.33 | G 3.12 | F 2.94 | A 3.48 | Y 2.69 | N 2.87 | E 3.9 | C 3.2 | S 3.01
P6: G 3.25 | E 3.8 | M 2.37 | Y 2.04 | R 2.52 | K 2.82 | V 2.19 | A 2.76 | S 3.1 | D 3.61 | L 2.04 | W 2.05 | I 1.62 | Q 3.02 | F 2.05 | N 2.53 | C 2.46 | H 2.77 | T 3.09
C11: M 2.86 | E 4.15 | L 2.84 | D 3.93 | F 2.53 | H 3.13 | N 3.62 | A 3.06 | K 3.58 | G 3.85 | I 3.33 | P 3.46
I2: R 3.11 | N 4.05 | G 3.27 | M 2.76 | P 4.11 | F 3.54 | D 3.68 | S 3.64 | H 3.54 | W 3 | E 3.67 | L 3.35 | Y 3.04 | V 3.24 | K 2.98 | A 3.61 | C 3.7 | Q 3.63 | T 3.85
R5: E 4.03 | V 3.52 | N 2.78 | M 3.22 | D 3.73 | Y 2.73 | T 3.1 | P 3.54 | Q 3 | G 3.37 | W 2.9 | C 2.77 | K 2.96 | H 3.16 | L 2.91 | I 2.93 | F 3.19 | A 3.34 | S 3.43
R3: M 3.14 | I 3.04 | D 3.82 | L 2.71 | H 3.09 | V 2.7 | Y 2.82 | Q 3.61 | G 3.09 | P 3.81 | S 3.37 | E 4.37 | C 2.61 | K 3.99 | T 3.27 | N 3.8 | F 2.02 | W 2.98 | A 3.69
L4: I 2.79 | W 2.31 | V 3.22 | Y 2.87 | D 4.18 | E 3.79 | N 3.58 | T 3.85 | A 2.99 | F 2.77 | C 3.45 | H 3.23 | G 3.63 | M 3.32 | S 3.6 | P 3.45 | Q 3.04 | R 3.03 | K 3.58
